Target: DnaJB8ΔCTD (human)
Test: cross-linking

Chain of HspA1A (human Hsp70) (P0DMV8 whole entry): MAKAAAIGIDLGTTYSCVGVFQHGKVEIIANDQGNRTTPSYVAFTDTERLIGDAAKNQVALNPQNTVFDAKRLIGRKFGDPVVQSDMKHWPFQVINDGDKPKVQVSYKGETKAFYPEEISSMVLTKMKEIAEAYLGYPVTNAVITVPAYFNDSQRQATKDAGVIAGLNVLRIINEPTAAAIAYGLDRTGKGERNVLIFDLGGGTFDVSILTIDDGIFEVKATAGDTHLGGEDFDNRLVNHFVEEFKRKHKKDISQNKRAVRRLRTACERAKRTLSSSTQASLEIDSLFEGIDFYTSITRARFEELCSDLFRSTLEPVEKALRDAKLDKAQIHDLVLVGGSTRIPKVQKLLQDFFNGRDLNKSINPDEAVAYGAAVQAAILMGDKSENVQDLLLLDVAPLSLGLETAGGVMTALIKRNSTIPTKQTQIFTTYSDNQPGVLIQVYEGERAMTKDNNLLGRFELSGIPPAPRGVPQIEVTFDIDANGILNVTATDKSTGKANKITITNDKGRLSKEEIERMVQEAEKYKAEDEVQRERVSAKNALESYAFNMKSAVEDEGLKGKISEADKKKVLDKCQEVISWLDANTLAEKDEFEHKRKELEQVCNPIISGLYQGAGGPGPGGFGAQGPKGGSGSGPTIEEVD

A total crosslinks between the JD and HspA1A across three XL-MS experiments of 14 crosslinks was found for “HspA1A (human Hsp70) (from UniProt P0DMV8 1-641) (natural protein)” in this work.

— publication doi:10.1101/2020.01.09.899237
